Tests used:
[1] = target: T1, UDG enzyme of B. subtilis (Bacillus subtilis, UniProt P39615 1-225); experiment: affinity chromatography of B. subtilis 110NA[pPR53.p56FLAG] lysate on anti-FLAG M2 column, elution with FLAG peptide, SDS gel, peptide mass fingerprinting
T1 construct: Endogenous enzyme of the B. subtilis 110NA extract, identified by peptide mass fingerprinting (MASCOT); also called UDG of B. subtilis; protein D
T1 sequence: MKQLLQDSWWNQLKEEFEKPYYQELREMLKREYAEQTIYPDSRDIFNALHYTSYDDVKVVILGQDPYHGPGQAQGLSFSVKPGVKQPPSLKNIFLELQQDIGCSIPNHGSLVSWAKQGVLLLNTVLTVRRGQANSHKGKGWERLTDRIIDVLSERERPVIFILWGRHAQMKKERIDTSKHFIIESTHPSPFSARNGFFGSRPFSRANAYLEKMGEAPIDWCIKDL
Description: In order to analyse whether the UDG enzyme is a cellular target of protein p56, affinity chromatography assays were performed. […] The culture was concentrated 10-fold in TBS buffer (50 mM Tris-HCl, pH 7.5, 150 mM NaCl) and was lysed using the French press (20,000 psi). The lysate was centrifuged at 7,000 rpm and 4° C. in the Sorvall-SS.34 rotor for 10 minutes. The supernatant was loaded in an anti-FLAG M2 column (Sigma). The proteins bound to the column were eluted with the TBS buffer containing the FLAG peptide (500 μg/ml) (Sigma). […] The gel was stained with SyproRuby (Molecular Probes). As a negative control, an extract from the 110NA[pPR53] strain was used.

[2] = target: T2, UDG enzyme of E. coli (E. coli, UniProt P12295 2-229); experiment: native polyacrylamide gel (16%) of p56 (2 µg) incubated with E. coli UDG (0.2 µg); Western blot and peptide mass fingerprinting of the band
T2 construct: Commercial enzyme; also called UDG of E. coli (New England Biolabs)
T2 sequence: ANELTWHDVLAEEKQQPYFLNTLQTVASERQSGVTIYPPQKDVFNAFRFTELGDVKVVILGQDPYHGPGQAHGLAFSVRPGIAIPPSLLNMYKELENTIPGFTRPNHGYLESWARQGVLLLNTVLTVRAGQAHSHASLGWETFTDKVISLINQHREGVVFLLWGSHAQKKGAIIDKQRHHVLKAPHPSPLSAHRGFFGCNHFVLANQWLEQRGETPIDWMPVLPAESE

B1: protein p56FLAG (other)
chain: MVQNDFVDSYDVTMLLQDDDGKQYYEYHKGLSLSDFEVLYGNTADEIIKLRLDKVLDYKDDDDK
notes: Produced constitutively in B. subtilis 110NA[pPR53.p56FLAG]; Captured from the cell lysate on an anti-FLAG M2 column
- binding result [1]: binds

B2: protein p56 of the phi29 (φ29) bacteriophage (other)
chain: MVQNDFVDSYDVTMLLQDDDGKQYYEYHKGLSLSDFEVLYGNTADEIIKLRLDKVL
notes: Untagged, purified as in section 1.4; also called protein of the invention
- binding result [2]: binds
